The text below walks through data of US20120184019A1 (University of California, published 2012).

Where a chain is given by its changes, count along the chain named. In names and notes the source's numbering stands.

Data set [1] concerns the molecule itself. Put plainly: self-assembly into filaments, GFP fluorescence microscopy in E. coli.
Data set [2] deals with the molecule itself. Put plainly: self-assembly into filaments, GFP fluorescence microscopy, time-lapse and FRAP in B. subtilis.
Data set [3] deals with the molecule itself. Put plainly: GFP fluorescence microscopy in B. subtilis (self-assembly into filaments).

B1: Alp8A-GFP fusion protein (Orf250 of Proteus vulgaris plasmid Rts1 fused to GFP) (other)
chain: MELLRKGRSFGGLFLIKGKVMNQSERFIVGLDIGYSNVKVACGGTQLLDPKVTIFPAYATPEPESDLALAKKSPDEVKVYPNGTEWRVFTNRVGHRELHESYHSTEMYKALFYGALIKATEGRSDVIDILVTGLPVRIANSEADRSQLCESFTGKHEVTPGRFILVKEVVVLSQGVGIMNDILNTEGLISDEDLEFSNILVIDPGYYSMDYVTFHRGDKKNEFSGSSLNATSVIIEEIVRVLERDYPKEGAQETERIETALRLGNKTFNNGFRSVEIEPLIEEVSHRIVSSVVAELLKRTRSIGPVHIIISAGGGARFYDHFIKEAFPQARILQSVNPVASNSIGYWHYGVNKLSSQSD
notes: Produced in E. coli TOP10 from pEB400; also called Rts1 orf250; pPtrcalp8A-gfp product; not shown: GFP from plasmid pDSW210
On to B1, for which, in data set [1], the binding result was “binds”.

B2: Alp7A-GFP fusion protein (OrfB of Bacillus subtilis natto plasmid pLS20 with C-terminal GFP) (other)
chain: MNISRMNVDFGNSMYMNLIDGYFFELPTNVVEISKEAAEGKFTSIVEDPADLKDRLLVSTVIDETERYFLVGELAEPEVLGNQHIKKLHNKVESHIPYVTFLAATAYYQALKGKREDNEVTIEYFQTMLPIWLLKKLDKFSEMQKRMASKFLGTHQVKVLTLGLEKELTIKVEDAACRIESEVARWAIKKNFDLEDKDYAEQFKNYDVVFCDLGGGTDDLVLLPAGLKPPKSRDSFVSNTEAPFLAHLEKLRKEKLLEHFDSVRELEKFIYSNIGKTKMERRDGNTGQKFDLTDIIKKSLKEYTEIKIAQAENTFPAPKDKVYKYLYFGGVGEVLEESISVVTEERYGRDISESNHIVAEDARLLNLYGLEVLSRAEQVKKQANEKEAQSI
notes: Observed inside living or fixed E. coli and B. subtilis cells; Not a purified protein; also called pLS20 OrfB; not shown: C-terminal GFP from plasmid pMUTIN-GFP+
With B2, the binding result in data set [1] was “binds”.

B3: Alp7A(E180A)-GFP (other)
chain: B2 chain with E180A
notes: Observed in B. subtilis PY79 cells; also called mini-pLS20alp7A(E180A)-gfp product; not shown: C-terminal GFP from plasmid pMUTIN-GFP+
Take B3: the binding result in data set [2] was “binds”.

B4: Alp7A(D212A)-GFP (other)
chain: B2 chain with D212A
notes: Observed in B. subtilis PY79 cells; also called mini-pLS20alp7A(D212A)-gfp product; not shown: C-terminal GFP from plasmid pMUTIN-GFP+
Regarding B4, the binding result in data set [3] is “no binding”.
